What was measured:
Test in all cases: holdup assay
Parameters in all cases: key: below the threshold = too weak to quantify, mostly under pKd 3.1 to 4
[1] = molecular target: T1, PTPN13_1, Q12923
T1 sequence (Q12923 1088-1188, limits assumed, looked up): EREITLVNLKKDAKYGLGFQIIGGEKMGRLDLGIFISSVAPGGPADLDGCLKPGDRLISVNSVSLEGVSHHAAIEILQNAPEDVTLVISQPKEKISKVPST

[2] = molecular target: T2, PDZRN3_1, Q9UPQ7
T2 sequence (Q9UPQ7 244-349, limits assumed, looked up): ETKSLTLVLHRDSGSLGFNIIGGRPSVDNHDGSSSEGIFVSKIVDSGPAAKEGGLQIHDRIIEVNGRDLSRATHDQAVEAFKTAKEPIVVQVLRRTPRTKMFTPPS

[3] = molecular target: AHNAK1, Q09666
[4] = molecular target: DLG4_2, P78352
[5] = molecular target: MAGI1_1, Q96QZ7
[6] = molecular target: HTRA1, Q92743
[7] = molecular target: MAGI2_5, Q86UL8
[8] = molecular target: NHERF4_2, Q86UT5
[9] = molecular target: GRIP2_6, Q9C0E4
[10] = molecular target: T3, LIN7A, O14910
T3 sequence (O14910 103-200, limits assumed, looked up): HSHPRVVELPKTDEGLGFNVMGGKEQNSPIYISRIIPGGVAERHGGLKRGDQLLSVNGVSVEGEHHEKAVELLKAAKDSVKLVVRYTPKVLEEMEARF

[11] = molecular target: T4, MPP7, Q5T2T1
T4 sequence (Q5T2T1 134-230, limits assumed, looked up): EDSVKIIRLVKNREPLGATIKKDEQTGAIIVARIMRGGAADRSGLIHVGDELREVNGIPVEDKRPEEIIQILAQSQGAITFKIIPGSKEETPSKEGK

[12] = molecular target: T5, PCLO, Q9Y6V0
T5 sequence (Q9Y6V0 4491-4600, limits assumed, looked up): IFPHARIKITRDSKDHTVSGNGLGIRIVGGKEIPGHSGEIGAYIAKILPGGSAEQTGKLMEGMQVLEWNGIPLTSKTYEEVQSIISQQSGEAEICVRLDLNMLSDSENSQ

[13] = molecular target: GRID2IP_1, A4D2P6
[14] = molecular target: Inadl_4, Q8NI35
[15] = molecular target: MAGI2_3, Q86UL8
[16] = molecular target: GIPC2, Q8TF65
[17] = molecular target: T6, MPP6, Q9NZW5
T6 sequence (Q9NZW5 125-219, limits assumed, looked up): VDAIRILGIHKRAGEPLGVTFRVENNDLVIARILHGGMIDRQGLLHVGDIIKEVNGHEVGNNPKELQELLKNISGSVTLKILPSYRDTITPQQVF

[18] = molecular target: SCRIB_2, Q14160
[19] = molecular target: T7, GRIP1_7, Q9Y3R0
T7 sequence (Q9Y3R0 999-1096, limits assumed, looked up): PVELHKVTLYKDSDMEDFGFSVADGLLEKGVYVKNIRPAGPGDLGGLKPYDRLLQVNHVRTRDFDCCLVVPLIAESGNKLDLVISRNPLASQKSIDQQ

[20] = molecular target: MAST2, Q6P0Q8
[21] = molecular target: GRASP, Q7Z6J2
[22] = molecular target: MAGI1_2, Q96QZ7
[23] = molecular target: T8, ARHGEF11, O15085
T8 sequence (O15085 42-136, limits assumed, looked up): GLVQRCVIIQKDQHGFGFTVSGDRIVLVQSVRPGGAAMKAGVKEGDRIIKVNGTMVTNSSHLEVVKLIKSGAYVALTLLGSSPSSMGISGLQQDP

[24] = molecular target: T9, SYNJ2BP, P57105
T9 sequence (P57105 8-110, limits assumed, looked up): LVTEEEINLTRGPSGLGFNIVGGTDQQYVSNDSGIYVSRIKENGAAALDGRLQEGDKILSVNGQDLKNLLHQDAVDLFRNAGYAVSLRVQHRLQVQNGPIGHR

[25] = molecular target: GRIP2_3, Q9C0E4
[26] = molecular target: T10, GRIP1_5, Q9Y3R0
T10 sequence (Q9Y3R0 568-668, limits assumed, looked up): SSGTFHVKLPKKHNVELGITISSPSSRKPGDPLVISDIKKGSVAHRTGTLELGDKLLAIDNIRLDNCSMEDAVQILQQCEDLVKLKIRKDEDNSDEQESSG

[27] = molecular target: FRMPD2_1, Q68DX3
[28] = modified: phospho on T at position -2 from the C-terminal residue
[29] = plain residues with an end cap or a label only (N-terminal biotin on a linker: ado-ado)

Measured: pKd

GRIP2_6, Q9C0E4, sequence (Q9C0E4 648-740): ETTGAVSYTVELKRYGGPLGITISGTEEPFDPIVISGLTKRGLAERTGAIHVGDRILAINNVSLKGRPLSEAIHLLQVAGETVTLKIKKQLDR
NHERF4_2, Q86UT5, sequence (Q86UT5 220-308): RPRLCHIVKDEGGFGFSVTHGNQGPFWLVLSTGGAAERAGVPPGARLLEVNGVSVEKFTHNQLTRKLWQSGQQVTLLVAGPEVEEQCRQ
FRMPD2_1, Q68DX3, sequence (Q68DX3 770-861): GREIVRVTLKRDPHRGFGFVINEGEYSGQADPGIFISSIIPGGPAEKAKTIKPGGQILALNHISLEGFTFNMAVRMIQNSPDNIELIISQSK
GIPC2, Q8TF65, sequence (Q8TF65 112-203): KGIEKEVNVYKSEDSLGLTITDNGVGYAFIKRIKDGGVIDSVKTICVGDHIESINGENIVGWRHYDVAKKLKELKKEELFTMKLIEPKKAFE
GRASP, Q7Z6J2, sequence (Q7Z6J2 96-193): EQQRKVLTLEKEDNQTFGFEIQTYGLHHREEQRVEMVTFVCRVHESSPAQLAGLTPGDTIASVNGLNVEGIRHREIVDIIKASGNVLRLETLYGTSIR
MAGI2_5, Q86UL8, sequence (Q86UL8 915-1017): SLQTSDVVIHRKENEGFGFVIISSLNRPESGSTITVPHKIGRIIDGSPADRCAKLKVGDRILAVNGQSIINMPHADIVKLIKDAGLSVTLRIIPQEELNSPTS
MAGI1_1, Q96QZ7, sequence (Q96QZ7 1-106): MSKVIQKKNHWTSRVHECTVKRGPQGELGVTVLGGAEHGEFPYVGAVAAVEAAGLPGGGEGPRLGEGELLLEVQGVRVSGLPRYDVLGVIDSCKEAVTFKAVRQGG
MAGI2_3, Q86UL8, sequence (Q86UL8 600-682): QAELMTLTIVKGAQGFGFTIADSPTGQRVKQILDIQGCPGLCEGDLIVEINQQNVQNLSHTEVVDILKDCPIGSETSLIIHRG
Inadl_4, Q8NI35, sequence (Q8NI35 547-651): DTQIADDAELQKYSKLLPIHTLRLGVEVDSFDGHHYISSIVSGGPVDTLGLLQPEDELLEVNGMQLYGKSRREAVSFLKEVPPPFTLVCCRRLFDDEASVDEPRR
GRIP2_3, Q9C0E4, sequence (Q9C0E4 238-339): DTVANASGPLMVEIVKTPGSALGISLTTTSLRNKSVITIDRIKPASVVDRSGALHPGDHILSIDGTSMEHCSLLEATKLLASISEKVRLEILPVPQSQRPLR
DLG4_2, P78352, sequence (P78352 155-259): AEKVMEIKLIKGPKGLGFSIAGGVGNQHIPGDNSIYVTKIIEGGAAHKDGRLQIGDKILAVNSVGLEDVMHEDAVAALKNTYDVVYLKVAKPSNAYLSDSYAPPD
HTRA1, Q92743, sequence (Q92743 360-477): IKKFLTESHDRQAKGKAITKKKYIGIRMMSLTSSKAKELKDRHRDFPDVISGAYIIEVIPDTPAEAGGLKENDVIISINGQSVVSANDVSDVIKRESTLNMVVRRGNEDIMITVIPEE
AHNAK1, Q09666, sequence (Q09666 4-100): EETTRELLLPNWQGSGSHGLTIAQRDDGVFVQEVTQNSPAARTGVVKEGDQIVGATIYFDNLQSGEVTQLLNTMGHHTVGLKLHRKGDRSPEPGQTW
SCRIB_2, Q14160, sequence (Q14160 857-960): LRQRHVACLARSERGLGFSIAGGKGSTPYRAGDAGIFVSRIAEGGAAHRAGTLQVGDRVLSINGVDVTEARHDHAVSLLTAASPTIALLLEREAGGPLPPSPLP
MAGI1_2, Q96QZ7, sequence (Q96QZ7 456-580): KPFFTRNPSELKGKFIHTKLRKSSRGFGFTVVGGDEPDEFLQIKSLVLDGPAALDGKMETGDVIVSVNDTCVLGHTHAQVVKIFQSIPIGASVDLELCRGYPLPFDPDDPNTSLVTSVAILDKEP
MAST2, Q6P0Q8, sequence (Q6P0Q8 1099-1202): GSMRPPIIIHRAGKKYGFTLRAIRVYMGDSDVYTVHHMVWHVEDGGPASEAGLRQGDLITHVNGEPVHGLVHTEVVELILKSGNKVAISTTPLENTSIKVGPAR
GRID2IP_1, A4D2P6, sequence (A4D2P6 1-87): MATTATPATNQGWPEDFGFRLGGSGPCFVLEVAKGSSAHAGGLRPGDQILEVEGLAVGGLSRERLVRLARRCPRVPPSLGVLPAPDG

SRSRRRETAL [HPV33-E6_-2P, P06427]
3.68: [17]; [28]
3.62: [20]; [28]
below the threshold: [1]; [28] | [2]; [28] | [3]; [28] | [4]; [28] | [5]; [28] | [6]; [28] | [7]; [28] | [8]; [28] | [9]; [28] | [10]; [28] | [11]; [28] | [12]; [28] | [13]; [28] | [14]; [28] | [15]; [28] | [16]; [28] | [18]; [28] | [19]; [28] | [21]; [28] | [22]; [28] | [23]; [28] | [24]; [28] | [25]; [28] | [26]; [28] | [27]; [28]

DLLGGGSDSI [TNRC6B, Q9UPQ9]
3.55: [16]; [29]
below the threshold: [1]; [29] | [2]; [29] | [3]; [29] | [5]; [29] | [6]; [29] | [7]; [29] | [8]; [29] | [9]; [29] | [10]; [29] | [11]; [29] | [12]; [29] | [13]; [29] | [14]; [29] | [15]; [29] | [17]; [29] | [18]; [29] | [19]; [29] | [20]; [29] | [21]; [29] | [22]; [29] | [24]; [29] | [25]; [29] | [26]; [29] | [27]; [29]
3.65: [23]; [29]
3.5: [4]; [29]
